Target: HBV core protein dimer (Cp149 dimer, 34 kDa) (hepatitis B virus)
Test: multi-cycle resistive-pulse sensing

## HBV core protein dimer (Cp149 dimer, 34 kDa) (domain or fragment)
  stoichiometry N: 120 dimers

From article PMC8784147
